Test results published in the supplement of paper PMC12636428.

Tested on: Saccharomyces cerevisiae
Assay: transcriptional activation domain activity (GFP:mCherry ratio, weighted mean of sorted bins, harmonized to initial dataset scale) (arbitrary fluorescence ratio units); higher = stronger transcriptional activation
Details: beta-estradiol 1 µM; induction time 4 h
Summary of the method: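 Barcoded protein tiles fused to an estradiol-inducible synthetic transcription factor were integrated at the yeast URA3 locus, in diploids carrying a GFP reporter. Cultures were diluted 1:5 into SC with 1 uM beta-estradiol, held 4 hours at 30 °C, sorted into 8 bins by GFP:mCherry ratio, and barcodes sequenced. Tiles under 50 reads were discarded. Activation activity is the read-weighted mean of bin median fluorescence, averaged across barcodes, then linearly mapped onto the initial dataset scale.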

AAEEEEAEAQAEKEEAEAEEAEAEEELEEAQAEEAEAEEAEAEEAEAVRGAMG
transcriptional activation domain activity: < 6570

MYCMRYFVPLLLLPFPDSPPIFVILFLISFFLHQKPCIYCTLLLFALFSSTCF
transcriptional activation domain activity: 57700

PNIILPLNPCRSGEFCELYPSAANLWAMFLHLILFCMQLPFILSIPFWLLFPV
transcriptional activation domain activity: 52900

TRTVLFSRGACVILFPWLMYAVGLLLHMIIVNYRLYILYWLLVLKRPIGGFKF
transcriptional activation domain activity: 57500

FSMTVGFTTAFSFLFLGYPTWGTRLWSFLPFWIGFYNLFVFLSKLDPIWAILF
transcriptional activation domain activity: 48800

AAQKFVSDIAADAYQYARVRTNATTGGRSKAEKNAQGGSSAAAKDKSKTVLTL
transcriptional activation domain activity: 29700

AATAEPEKKKGSKKDKAAAAPAPAAAPAKDAKSAKKAKKSAAPPPPPPAASSS
transcriptional activation domain activity: 15600

PRHIQTIDEKLINDSNYLAFLKFDDLENEKFHSSASSISSPSYSSPSFSSYRN
transcriptional activation domain activity: 82100

SILASLGFIVCGVYIWVTSHWNPQHVRDGLPLLYFSGHLRCKIYSIVLNLFVT
transcriptional activation domain activity: 69900

AEAEKMDVDPAVSTAETEVKQESPAPAAATSVSTPEVKVTPSSAHPSLPAKPL
transcriptional activation domain activity: 18400

MPRHLYLIYILYILMTWGLYLILLQVIFIITMLMIFIYPFSIYLFKFQHIRSL
transcriptional activation domain activity: 49500

AIAEYKWVHLKKGAELTLIDVYDGCTRGLSGFSLTIRAMHFDFVLLVAFLFHL
transcriptional activation domain activity: 50400

GKKGPGGRKGPGGRKGPGGRGGRAGGPKGRGGKGGKGMRPGAGAPPPPPPIAA
transcriptional activation domain activity: 52600

RNEGEARKGEGGRMRVVGIRQRAEGKTRRRGRKRERGREGSERRGEGGGREQG
transcriptional activation domain activity: < 6570

MREDITQIDLITFYLCIFLSITVFVELIILCWIRILSIFNVCLFALLLCQLVY
transcriptional activation domain activity: 33700

DPDASSFSGTVLDKAGSIARLSEDEQGGERAAKRRRLNKKVGMEAIAGLVGEY
transcriptional activation domain activity: 40800

ASNAPGTGASRSAAAAATAAISRAKGAAQQQQAQKKPDASSSRPAGKQPAVKE
transcriptional activation domain activity: 26900

RLSTFYNLNLIRVLFRFLFTLPLLILAHDFLLMLGALGCFVSSCITLLIFFPR
transcriptional activation domain activity: 63000

VRSLTLEIYFNWLQIIFDSKLQDEFSKLLNYNLITKVDLIINLLESIALRFSD
transcriptional activation domain activity: 51000

MWLLFYARACLSLLWFTSARVLFFSSFLTFSFLIIWLLGSFDIFRILVLFSFF
transcriptional activation domain activity: 87100

AINYASMCKQYERAEYTQRLMIELDPVLRHSWSRRLATWRLTETWTHYLVLNI
transcriptional activation domain activity: 68900

GHSGNNAHSHLQKPHGHAGKTRSEVGGRSGEGGEGNGGAGGGELGKGVAAGRL
transcriptional activation domain activity: 13700

INVTSPPPIDYLSIGDFSFFSFETTDLPFSIDSGVLLPSLSSFEQPIFDFNFI
transcriptional activation domain activity: 143000

EEDAGATSEPASTPKLKPETKPKPKAAPKPKPKAEETDSSAKPKAKPKARASS
transcriptional activation domain activity: 33000

LDRTVEAFRHADALRDVHLYGMVFSYFKMPLWQLTRFSGDIIGLNEYLLLFYN
transcriptional activation domain activity: 38000

RDNSFLHALIHRFHEVHIVAWCIEKVNFMYLHPGVPFYVLCDCTRGPAIMVLH
transcriptional activation domain activity: 51300

VVLPCLNLVLAVRKYFVRYLMMPRYSTLQVFGEENAAGYRPMLFWEIEPWYVA
transcriptional activation domain activity: 41800

MASALLDFPYLHLGIPSFLRVNLFLNIHVHFFFVHFCLSPSVRFIFFYFFLYL
transcriptional activation domain activity: 50300

ILNITPYAAGQFGYYYGTCWFNDPRPDVQFRWLLGSQSVWILLMSTGEVVFFF
transcriptional activation domain activity: < 6570

LIVVFAQSKIDSDEASVPVDEELNGVSLLVRILSDSAGRIYMIVTLELLLKRN
transcriptional activation domain activity: 53600

MIITFYTFFSFFPFFISFSLSLFSLRYFFFFFSFLSLSFFFFLFFLILIHLFL
transcriptional activation domain activity: 14400

EATEPAEKPKRKRGRPPGSKNKKTLAAQGGTGEASAAEPPPKRPRGRPPKRKP
transcriptional activation domain activity: 34600

MAITHAALPPMCRISLIRVWIETMLYGFNCVMYGLCMFIPVEGRLLLCWMLIV
transcriptional activation domain activity: 50700

DKNYNNLTVYNFVYLFGGRVHLYKNLTFHVVVTYVCVISSIVFFLVFIAKWYW
transcriptional activation domain activity: 52100

LWSHSILILACLIPYLVLRCSTYYCYQAISYIDSNDLAWSNVSIRFDVAMLVV
transcriptional activation domain activity: 69200

ALEKDKKEEPKEDSKKDESKTEKKEEEDNKDENGRPKLVVKRLRKETTAAAAV
transcriptional activation domain activity: 20000

NGELPHENGGRETKVKFEGTAAPKESRIGQMRQHLLLLAESQHRFIRHCGTHG
transcriptional activation domain activity: 29600

CIKATLAPDSAIFVGPSALIFHVLQLSILIILLLKTGGPGSGKGTQCTRLAKD
transcriptional activation domain activity: 29600

MLCIPFCVLFCVVMGLINYGAFVDPCFLSFYVLLSTLLQLPSSFLPFFLFLPP
transcriptional activation domain activity: 66900

LVPWRPQKVLWLKVFYLLTRYLAFVDIPINLYSYLGFGISLPACQVLFSWYCW
transcriptional activation domain activity: 56100

SRTTSLGVWFLVIQMIWYGLFGALYIWFFCQDWYLFDVHLVFDYLMRFILCLM
transcriptional activation domain activity: 40700

GGEGGAARNGRKRAENARRGREGGKERGPGNKTVAGQEAGGRGHREDRGGSDR
transcriptional activation domain activity: 40500

LQAMLLLAHMILAIPFFSLFCRLLLLHPTNPDSPVLWMSLHVFFTYLWSLALV
transcriptional activation domain activity: 66000

AAKGKAAAGGGTKKKGTAGAEAETPEMATPAPEGAPNAPAKKRAKKATAAAAA
transcriptional activation domain activity: 36400

KDGKNEVIVDMQRVRERKREIVNSFRGGSEKRVADAGVTVLMGSASFVDSKTV
transcriptional activation domain activity: 34900

APKAAAPPPAPVPAPAPVAAPAPAASVELGPDGQPKRRRGRPKGSKNKPKIPP
transcriptional activation domain activity: 35700

TKPAPKKAGGRPKKVVAEPEPAAEPSESEEPKLAPKRAGGRPKKVVAPVAEPE
transcriptional activation domain activity: 19400

PLLACQVAYGFLVVFFSYSLIEEQVGCVIYYEHLVMLCWLVIIMPPNALLSTV
transcriptional activation domain activity: 58700

EDEAPEPEAEEKKPSAKGRRASKVKQENDEEPEPEPVKQVAKAKRGSKKAVKE
transcriptional activation domain activity: 40200

SAKEEPGAAETDADTDPEPAAGKKRKRQEDKGEAQEGGSGKKSVGGKKAKQAE
transcriptional activation domain activity: 19200

MAKKGSASTDKKAADKSDKKGKAKATTDDGEEKQAKGKGSLKAATAVNVRHIL
transcriptional activation domain activity: 36900

MFWLTLLPSPCFTFFALCYKFFSFLVSIEFFKSCFLPLPTVSPNLLSSLALLL
transcriptional activation domain activity: 63800

MGMAYGVCCMYFLEPWWVGAISLVRFLGVGVFTLCMYFPSIMIFYFLLFFIIF
transcriptional activation domain activity: 51000

MVFIIFFAAFYTLFLYHSSLFFTLPFASIFFLLFFVRFIFFISVFLLFFLLGL
transcriptional activation domain activity: 51100

SLNIDSMLDDYVSSDLLLNDDDDDTNLSRRRFSDVITNQFPSMTNSRNSISHS
transcriptional activation domain activity: 52600

SSSRRRSQSPAAEASRSRRERSRDRSDAEDEGGSRSGSRRRRRRGSAEPREED
transcriptional activation domain activity: 41600

GILVLLLVYSNLVLLIYHPPTSKRPLDHLFIHVPIRLFLILPLSLMFPYSLLY
transcriptional activation domain activity: 43900

GFLLLLLLLFVFSLVVVHGIVSVSVFYQFFRPYCRFFLFYPYWFIYFLFCLLA
transcriptional activation domain activity: 58500

APAAADEEQEGESKNKKKKKKKGAKKAEADEEAVEAAAPAKGKKKGGAPIAAL
transcriptional activation domain activity: 54700

AGEKADAPNGEGAGEGNRRRPSGRGRGRGRGGRGARNGRDGAQEEGAEAAAAP
transcriptional activation domain activity: 14300

LLKKCLKSSFGKSNEVTTYCLEFFGNVYRWSEMYWSSTWPVLLLVHALKSKQK
transcriptional activation domain activity: 52700

HRAGTSGQSLQQDDVLHVTRATLVELGNTSISTVIASLLVLLEDLARPYAAVA
transcriptional activation domain activity: 36000

SGSSKPRRAEDGRKSSRRDHSREREGSNGGHHRSRSGRDGSASPKRSSSSRRR
transcriptional activation domain activity: 16800

EYDEDAARRIAERVHARAIGLTCGAAPPQVGGRSCASAVWSPIRVAVSTVCIQ
transcriptional activation domain activity: 44700

AAAPDVENEPAGRRKAAAAGVEQGGGHPHMLKGVCGNAGWGDAQAAAGKACKG
transcriptional activation domain activity: 26900

LFICRYTSDGQFIGNQNGCYNLVPVYDWIKRCVISIFVVFFIAFLPLFLQELC
transcriptional activation domain activity: 56900

FHRGGSNGSNSNNNNNAGDLQHHQHAGINKTTANVSEKYHWNRIKGTVTDVIE
transcriptional activation domain activity: 28300

EYAEWLLQPEQNNGTWVADVLWPAIDLDLEWIALNWNQSSWDLWWPPVWAGSF
transcriptional activation domain activity: 107000

KFNNRLSSDSTSPIKYEADVSAGGKISEDNSTKGSSKESSAIADELDWLKFGI
transcriptional activation domain activity: 40600

ATPAPAPGMSAAPAPAAEPVESTPKAESKPEPKPEPKAEPKAESKPAAKPAAA
transcriptional activation domain activity: 19500

RWCARCMLLTATIHMGYFFSAWAPYDYIGYQLKNNKIVWKGLAAWCTLVWIVF
transcriptional activation domain activity: 47700

MPHYNSFNMDFSKLRNACGIVLLHWRRYRRILWLIAKNFMRLRGLVSLFDSGP
transcriptional activation domain activity: 48600

SLLLPQQPVFVSENVGSEFSSLNEFLSMLENPLLTQTSLSSSSASNVHLENGS
transcriptional activation domain activity: 98100

LTDWNVVSNKPITGPADPNEDVYIGRSETAMWMRVVSSWVCMLLYSWSLLAPV
transcriptional activation domain activity: 68000

MHTHAVTRSLFLYFLLNFFFIFFLLLEGFGLLLDFSFFFVLFRLDSLSLLFVF
transcriptional activation domain activity: 76000

PDLSIYMVDAFVHVLITAGLRDSAAVLHERIMSEFLDRILLILRAAVRLNKII
transcriptional activation domain activity: 62400

FQPAVATPTVSIGLIYLIIMAFFSFSFFLPIHMKYIQPQGHPPLHFWQLIIWR
transcriptional activation domain activity: 68900

KEVASADTKPADAPAGEAKAPKKEKKEKEKKPAEAAEGGKKKEKAAGGGGKAA
transcriptional activation domain activity: 36100

AAARAPHVAPAPPDARPKSKKRKSSSPDDGRAPAKSRRLSPARAAPAKPKHRR
transcriptional activation domain activity: 12300

AANKNAKRREARKKAAAAAGEGNEEDKGASAETKEDKSAEVKEKENVKPASEK
transcriptional activation domain activity: 29600

SFSVILFYFIFLISPGQKAAFVFPWSFFFFLFFFFFFFTFFYFRLFSANFVCV
transcriptional activation domain activity: 45000

NANVKLCVDGKWDKMCLMCTGDGTSSGVWRLCERILGSARCVIESIGCWVVLC
transcriptional activation domain activity: 60600

GYDDTVVLDGCYAAAIRWKSFAYVSTAVRISWKRYLMRFLLRISPWLTIIFSV
transcriptional activation domain activity: 57600
